Assay results taken from patent US20150344540A1, “NOVEL GLP-1 RECEPTOR AGONISTS WITH CHOLESTEROL EFFLUX ACTIVITY” (NOVO NORDISK A/S, priority 2012, published 2015).
Where no end group is shown, it is not given here. [ ]: non-standard residue; d: D form. Aib = CC(C)(N)C(=O)O

Target: human GLP-1 receptor (human, UniProt P43220)
Assay: cell-based or functional assay

B1: [Aib8,Glu23,Val25,His31,Glu34,Lys35,Aib36,Lys37]-GLP-1-(7-37)-peptidyl-Glu-Phe-Leu amide (peptide)
peptide: H[Aib]EGTFTSDVSSYLEGEAVKEFIAHLVEK[Aib]KEFL-NH2
modifications: N-terminus assumed
SMILES: CC[C@H](C)[C@H](NC(=O)[C@H](Cc1ccccc1)NC(=O)[C@H](CCC(=O)O)NC(=O)[C@H](CCCCN)NC(=O)[C@@H](NC(=O)[C@H](C)NC(=O)[C@H](CCC(=O)O)NC(=O)CNC(=O)[C@H](CCC(=O)O)NC(=O)[C@H](CC(C)C)NC(=O)[C@H](Cc1ccc(O)cc1)NC(=O)[C@H](CO)NC(=O)[C@H](CO)NC(=O)[C@@H](NC(=O)[C@H](CC(=O)O)NC(=O)[C@H](CO)NC(=O)[C@@H](NC(=O)[C@H](Cc1ccccc1)NC(=O)[C@@H](NC(=O)CNC(=O)[C@H](CCC(=O)O)NC(=O)C(C)(C)NC(=O)[C@@H](N)Cc1c[nH]cn1)[C@@H](C)O)[C@@H](C)O)C(C)C)C(C)C)C(=O)N[C@@H](C)C(=O)N[C@@H](Cc1c[nH]cn1)C(=O)N[C@@H](CC(C)C)C(=O)N[C@H](C(=O)N[C@@H](CCC(=O)O)C(=O)N[C@@H](CCCCN)C(=O)NC(C)(C)C(=O)N[C@@H](CCCCN)C(=O)N[C@@H](CCC(=O)O)C(=O)N[C@@H](Cc1ccccc1)C(=O)N[C@@H](CC(C)C)C(N)=O)C(C)C
For B1, the “CRE luciferase EC50, 0% HSA” value was 0.066 nM and the “CRE luciferase EC50, 1% HSA” value was 0.02 nM.

B2: [Aib2,Gly16,Lys29,Aib30,Leu31,Glu32,Phe33,Leu34,Glu35,Leu36,Leu37]-Exendin-4-(1-37)-peptide amide (peptide)
peptide: H[Aib]EGTFTSDLSKQMEGEAVRLFIEWLKNK[Aib]LEFLELL-NH2
modifications: N-terminus assumed
SMILES: CC[C@H](C)[C@H](NC(=O)[C@H](Cc1ccccc1)NC(=O)[C@H](CC(C)C)NC(=O)[C@H](CCCNC(=N)N)NC(=O)[C@@H](NC(=O)[C@H](C)NC(=O)[C@H](CCC(=O)O)NC(=O)CNC(=O)[C@H](CCC(=O)O)NC(=O)[C@H](CCSC)NC(=O)[C@H](CCC(N)=O)NC(=O)[C@H](CCCCN)NC(=O)[C@H](CO)NC(=O)[C@H](CC(C)C)NC(=O)[C@H](CC(=O)O)NC(=O)[C@H](CO)NC(=O)[C@@H](NC(=O)[C@H](Cc1ccccc1)NC(=O)[C@@H](NC(=O)CNC(=O)[C@H](CCC(=O)O)NC(=O)C(C)(C)NC(=O)[C@@H](N)Cc1c[nH]cn1)[C@@H](C)O)[C@@H](C)O)C(C)C)C(=O)N[C@@H](CCC(=O)O)C(=O)N[C@@H](Cc1c[nH]c2ccccc12)C(=O)N[C@@H](CC(C)C)C(=O)N[C@@H](CCCCN)C(=O)N[C@@H](CC(N)=O)C(=O)N[C@@H](CCCCN)C(=O)NC(C)(C)C(=O)N[C@@H](CC(C)C)C(=O)N[C@@H](CCC(=O)O)C(=O)N[C@@H](Cc1ccccc1)C(=O)N[C@@H](CC(C)C)C(=O)N[C@@H](CCC(=O)O)C(=O)N[C@@H](CC(C)C)C(=O)N[C@@H](CC(C)C)C(N)=O
With B2 the “CRE luciferase EC50, 0% HSA” value was 1.51 nM and the “CRE luciferase EC50, 1% HSA” value was 0.552 nM.

For HAEGTFTSDVSSYLEGQAAKEFIAWLVEKVHEFL-NH2 [[Glu34,Lys35,Val36,His37]-GLP-1-(7-37)-peptidyl-Glu-Phe-Leu amide], the “CRE luciferase EC50, 0% HSA” value was 0.107 nM and the “CRE luciferase EC50, 1% HSA” value was 0.03 nM.

In the case of HAEGTFTSDVSSYLEGEAVREFIAWLVHRVREFLEK [[Glu23,Val25,Arg26,His34,Arg35,Val36,Arg37]-GLP-1-(7-37)-peptidyl-Glu-Phe-Leu-Glu-Lys], the “CRE luciferase EC50, 0% HSA” value is reported as 0.039 nM and the “CRE luciferase EC50, 1% HSA” value is reported as 0.014 nM.

B3: [His14,Tyr20,Glu23,Val25,Glu34,Lys35,Aib36,Lys37]-GLP-1-(7-37)-peptidyl-Glu-Phe-Leu amide (peptide)
peptide: HAEGTFTHDVSSYYEGEAVKEFIAWLVEK[Aib]KEFL-NH2
modifications: N-terminus assumed
SMILES: CC[C@H](C)[C@H](NC(=O)[C@H](Cc1ccccc1)NC(=O)[C@H](CCC(=O)O)NC(=O)[C@H](CCCCN)NC(=O)[C@@H](NC(=O)[C@H](C)NC(=O)[C@H](CCC(=O)O)NC(=O)CNC(=O)[C@H](CCC(=O)O)NC(=O)[C@H](Cc1ccc(O)cc1)NC(=O)[C@H](Cc1ccc(O)cc1)NC(=O)[C@H](CO)NC(=O)[C@H](CO)NC(=O)[C@@H](NC(=O)[C@H](CC(=O)O)NC(=O)[C@H](Cc1c[nH]cn1)NC(=O)[C@@H](NC(=O)[C@H](Cc1ccccc1)NC(=O)[C@@H](NC(=O)CNC(=O)[C@H](CCC(=O)O)NC(=O)[C@H](C)NC(=O)[C@@H](N)Cc1c[nH]cn1)[C@@H](C)O)[C@@H](C)O)C(C)C)C(C)C)C(=O)N[C@@H](C)C(=O)N[C@@H](Cc1c[nH]c2ccccc12)C(=O)N[C@@H](CC(C)C)C(=O)N[C@H](C(=O)N[C@@H](CCC(=O)O)C(=O)N[C@@H](CCCCN)C(=O)NC(C)(C)C(=O)N[C@@H](CCCCN)C(=O)N[C@@H](CCC(=O)O)C(=O)N[C@@H](Cc1ccccc1)C(=O)N[C@@H](CC(C)C)C(N)=O)C(C)C
In the case of B3, the “CRE luciferase EC50, 0% HSA” value is reported as 0.338 nM and the “CRE luciferase EC50, 1% HSA” value is reported as 0.101 nM.

For HAEGTFTSDVSSYLEGQAAKEFIAWLVEHVKEFL-NH2 [[Glu34,His35,Val36,Lys37]-GLP-1-(7-37)-peptidyl-Glu-Phe-Leu amide], the “CRE luciferase EC50, 0% HSA” value was 0.103 nM and the “CRE luciferase EC50, 1% HSA” value was 0.024 nM.

B4: [Tyr12,Asn14,Thr17,Glu18,Glu23,Val25,Glu34,Lys35,Aib36,Lys37]-GLP-1-(7-37)-peptidyl-Glu-Phe-Leu amide (peptide)
peptide: HAEGTYTNDVTEYLEGEAVKEFIAWLVEK[Aib]KEFL-NH2
modifications: N-terminus assumed
SMILES: CC[C@H](C)[C@H](NC(=O)[C@H](Cc1ccccc1)NC(=O)[C@H](CCC(=O)O)NC(=O)[C@H](CCCCN)NC(=O)[C@@H](NC(=O)[C@H](C)NC(=O)[C@H](CCC(=O)O)NC(=O)CNC(=O)[C@H](CCC(=O)O)NC(=O)[C@H](CC(C)C)NC(=O)[C@H](Cc1ccc(O)cc1)NC(=O)[C@H](CCC(=O)O)NC(=O)[C@@H](NC(=O)[C@@H](NC(=O)[C@H](CC(=O)O)NC(=O)[C@H](CC(N)=O)NC(=O)[C@@H](NC(=O)[C@H](Cc1ccc(O)cc1)NC(=O)[C@@H](NC(=O)CNC(=O)[C@H](CCC(=O)O)NC(=O)[C@H](C)NC(=O)[C@@H](N)Cc1c[nH]cn1)[C@@H](C)O)[C@@H](C)O)C(C)C)[C@@H](C)O)C(C)C)C(=O)N[C@@H](C)C(=O)N[C@@H](Cc1c[nH]c2ccccc12)C(=O)N[C@@H](CC(C)C)C(=O)N[C@H](C(=O)N[C@@H](CCC(=O)O)C(=O)N[C@@H](CCCCN)C(=O)NC(C)(C)C(=O)N[C@@H](CCCCN)C(=O)N[C@@H](CCC(=O)O)C(=O)N[C@@H](Cc1ccccc1)C(=O)N[C@@H](CC(C)C)C(N)=O)C(C)C
In the case of B4, the “CRE luciferase EC50, 0% HSA” value is reported as 0.202 nM and the “CRE luciferase EC50, 1% HSA” value is reported as 0.104 nM.

With HAEGTFTNDMTNYLEGEAVKEFIAWLVEKGKEFL-NH2 the “CRE luciferase EC50, 0% HSA” value was 0.079 nM and the “CRE luciferase EC50, 1% HSA” value was 0.028 nM.

B5: [Aib8,Asp23,Val25,Asp27,Glu34,Lys35,Aib36,Lys37]-GLP-1-(7-37)-peptidyl-Glu-Phe-Leu amide (peptide)
peptide: H[Aib]EGTFTSDVSSYLEGDAVKDFIAWLVEK[Aib]KEFL-NH2
modifications: N-terminus assumed
SMILES: CC[C@H](C)[C@H](NC(=O)[C@H](Cc1ccccc1)NC(=O)[C@H](CC(=O)O)NC(=O)[C@H](CCCCN)NC(=O)[C@@H](NC(=O)[C@H](C)NC(=O)[C@H](CC(=O)O)NC(=O)CNC(=O)[C@H](CCC(=O)O)NC(=O)[C@H](CC(C)C)NC(=O)[C@H](Cc1ccc(O)cc1)NC(=O)[C@H](CO)NC(=O)[C@H](CO)NC(=O)[C@@H](NC(=O)[C@H](CC(=O)O)NC(=O)[C@H](CO)NC(=O)[C@@H](NC(=O)[C@H](Cc1ccccc1)NC(=O)[C@@H](NC(=O)CNC(=O)[C@H](CCC(=O)O)NC(=O)C(C)(C)NC(=O)[C@@H](N)Cc1c[nH]cn1)[C@@H](C)O)[C@@H](C)O)C(C)C)C(C)C)C(=O)N[C@@H](C)C(=O)N[C@@H](Cc1c[nH]c2ccccc12)C(=O)N[C@@H](CC(C)C)C(=O)N[C@H](C(=O)N[C@@H](CCC(=O)O)C(=O)N[C@@H](CCCCN)C(=O)NC(C)(C)C(=O)N[C@@H](CCCCN)C(=O)N[C@@H](CCC(=O)O)C(=O)N[C@@H](Cc1ccccc1)C(=O)N[C@@H](CC(C)C)C(N)=O)C(C)C
In the case of B5, the “CRE luciferase EC50, 0% HSA” value is reported as 4.88 nM and the “CRE luciferase EC50, 1% HSA” value is reported as 0.776 nM.

B6: [Aib8,Trp23,Val25,Glu34,Lys35,Aib36,Lys37]-GLP-1-(7-37)-peptidyl-Glu-Phe-Leu amide (peptide)
peptide: H[Aib]EGTFTSDVSSYLEGWAVKEFIAWLVEK[Aib]KEFL-NH2
modifications: N-terminus assumed
SMILES: CC[C@H](C)[C@H](NC(=O)[C@H](Cc1ccccc1)NC(=O)[C@H](CCC(=O)O)NC(=O)[C@H](CCCCN)NC(=O)[C@@H](NC(=O)[C@H](C)NC(=O)[C@H](Cc1c[nH]c2ccccc12)NC(=O)CNC(=O)[C@H](CCC(=O)O)NC(=O)[C@H](CC(C)C)NC(=O)[C@H](Cc1ccc(O)cc1)NC(=O)[C@H](CO)NC(=O)[C@H](CO)NC(=O)[C@@H](NC(=O)[C@H](CC(=O)O)NC(=O)[C@H](CO)NC(=O)[C@@H](NC(=O)[C@H](Cc1ccccc1)NC(=O)[C@@H](NC(=O)CNC(=O)[C@H](CCC(=O)O)NC(=O)C(C)(C)NC(=O)[C@@H](N)Cc1c[nH]cn1)[C@@H](C)O)[C@@H](C)O)C(C)C)C(C)C)C(=O)N[C@@H](C)C(=O)N[C@@H](Cc1c[nH]c2ccccc12)C(=O)N[C@@H](CC(C)C)C(=O)N[C@H](C(=O)N[C@@H](CCC(=O)O)C(=O)N[C@@H](CCCCN)C(=O)NC(C)(C)C(=O)N[C@@H](CCCCN)C(=O)N[C@@H](CCC(=O)O)C(=O)N[C@@H](Cc1ccccc1)C(=O)N[C@@H](CC(C)C)C(N)=O)C(C)C
With B6 the “CRE luciferase EC50, 0% HSA” value was 0.763 nM and the “CRE luciferase EC50, 1% HSA” value was 0.296 nM.

B7: [Aib8,Glu23,Val25,Glu34,Lys35,Leu36,Lys37]-GLP-1-(7-37)-peptidyl-Glu-Leu-Val amide (peptide)
peptide: H[Aib]EGTFTSDVSSYLEGEAVKEFIAWLVEKLKELV-NH2
modifications: N-terminus assumed
SMILES: CC[C@H](C)[C@H](NC(=O)[C@H](Cc1ccccc1)NC(=O)[C@H](CCC(=O)O)NC(=O)[C@H](CCCCN)NC(=O)[C@@H](NC(=O)[C@H](C)NC(=O)[C@H](CCC(=O)O)NC(=O)CNC(=O)[C@H](CCC(=O)O)NC(=O)[C@H](CC(C)C)NC(=O)[C@H](Cc1ccc(O)cc1)NC(=O)[C@H](CO)NC(=O)[C@H](CO)NC(=O)[C@@H](NC(=O)[C@H](CC(=O)O)NC(=O)[C@H](CO)NC(=O)[C@@H](NC(=O)[C@H](Cc1ccccc1)NC(=O)[C@@H](NC(=O)CNC(=O)[C@H](CCC(=O)O)NC(=O)C(C)(C)NC(=O)[C@@H](N)Cc1c[nH]cn1)[C@@H](C)O)[C@@H](C)O)C(C)C)C(C)C)C(=O)N[C@@H](C)C(=O)N[C@@H](Cc1c[nH]c2ccccc12)C(=O)N[C@@H](CC(C)C)C(=O)N[C@H](C(=O)N[C@@H](CCC(=O)O)C(=O)N[C@@H](CCCCN)C(=O)N[C@@H](CC(C)C)C(=O)N[C@@H](CCCCN)C(=O)N[C@@H](CCC(=O)O)C(=O)N[C@@H](CC(C)C)C(=O)N[C@H](C(N)=O)C(C)C)C(C)C
In the case of B7, the “CRE luciferase EC50, 0% HSA” value is reported as 0.155 nM and the “CRE luciferase EC50, 1% HSA” value is reported as 0.082 nM.

With HADGTLTSDISSYLEGEAVKEFIAWLVEK[Aib]KEFL-NH2 [[Asp9,Leu12,Ile16,Glu23,Val25,Glu34,Lys35,Aib36,Lys37]-GLP-1-(7-37)-peptidyl-Glu-Phe-Leu amide] the “CRE luciferase EC50, 0% HSA” value was 0.222 nM and the “CRE luciferase EC50, 1% HSA” value was 0.062 nM.
